Key:
Assay in all cases: cell-based or functional assay
[1] = molecular target: SARS-CoV-2 "Delta" B.1.617.2 full-length Spike protein on pseudovirus (SARS-CoV-2) (UniProt P0DTC2)
[2] = molecular target: SARS-CoV-2 "Delta-plus" B.1.617.2.1 full-length Spike protein on pseudovirus (SARS-CoV-2) (UniProt P0DTC2)
[3] = molecular target: SARS-CoV-2 "Gamma" Brazil P.1.B.1.1.28 full-length Spike protein on pseudovirus (SARS-CoV-2) (UniProt P0DTC2)
[4] = molecular target: SARS-CoV-2 "Epsilon" B.1.427/9 full-length Spike protein on pseudovirus (SARS-CoV-2) (UniProt P0DTC2)
[5] = molecular target: SARS-CoV-2 "Alpha" UK B.1.1.7 full-length Spike protein on pseudovirus (SARS-CoV-2) (UniProt P0DTC2)
[6] = molecular target: SARS-CoV-2 "Beta" SA B.1.351 full-length Spike protein on pseudovirus (SARS-CoV-2) (UniProt P0DTC2)

## Anti-Nucleocapsid (Neg Control) (antibody)
[1]
  Pseudovirus Neturalization: > 50 µg/mL
[2]
  Pseudovirus Neturalization: > 50 µg/mL
[3]
  Pseudovirus Neturalization: > 50 µg/mL
[4]
  Pseudovirus Neturalization: > 50 µg/mL
[5]
  Pseudovirus Neturalization: > 50 µg/mL
[6]
  Pseudovirus Neturalization: > 50 µg/mL

## CA-1 (AB-009265) (antibody)
[1]
  Pseudovirus Neturalization: 2.19 µg/mL
[2]
  Pseudovirus Neturalization: 41.5 µg/mL
[3]
  Pseudovirus Neturalization: > 50 µg/mL
[4]
  Pseudovirus Neturalization: 0.33 µg/mL
[5]
  Pseudovirus Neturalization: 0.209 µg/mL
[6]
  Pseudovirus Neturalization: > 50 µg/mL

## CB-6 (AB-009264) (antibody)
[1]
  Pseudovirus Neturalization: 0.004 µg/mL
[2]
  Pseudovirus Neturalization: > 50 µg/mL
[3]
  Pseudovirus Neturalization: > 50 µg/mL
[4]
  Pseudovirus Neturalization: 0.009 µg/mL
[5]
  Pseudovirus Neturalization: 0.417 µg/mL
[6]
  Pseudovirus Neturalization: > 50 µg/mL

## COVA1-21 (AB-010159) (antibody)
[1]
  Pseudovirus Neturalization: > 50 µg/mL
[2]
  Pseudovirus Neturalization: > 50 µg/mL
[3]
  Pseudovirus Neturalization: > 50 µg/mL
[4]
  Pseudovirus Neturalization: > 50 µg/mL
[5]
  Pseudovirus Neturalization: > 50 µg/mL
[6]
  Pseudovirus Neturalization: > 50 µg/mL

## CR3022 (AB-009073) (antibody)
[1]
  Pseudovirus Neturalization: > 50 µg/mL
[2]
  Pseudovirus Neturalization: > 50 µg/mL
[3]
  Pseudovirus Neturalization: > 50 µg/mL
[4]
  Pseudovirus Neturalization: > 50 µg/mL
[5]
  Pseudovirus Neturalization: > 50 µg/mL
[6]
  Pseudovirus Neturalization: > 50 µg/mL

## LY-CoV555 | Bamlanivimab (AB-010160) (antibody)
[1]
  Pseudovirus Neturalization: 19.3 µg/mL
[2]
  Pseudovirus Neturalization: 6.93 µg/mL
[3]
  Pseudovirus Neturalization: > 50 µg/mL
[4]
  Pseudovirus Neturalization: 7.82 µg/mL
[5]
  Pseudovirus Neturalization: 0.0012 µg/mL
[6]
  Pseudovirus Neturalization: > 50 µg/mL

## REGN10933 | Casirivimab (AB-010156) (antibody)
[1]
  Pseudovirus Neturalization: 0.001 µg/mL
[2]
  Pseudovirus Neturalization: 0.001 µg/mL
[3]
  Pseudovirus Neturalization: 0.666 µg/mL
[4]
  Pseudovirus Neturalization: 0.001 µg/mL
[6]
  Pseudovirus Neturalization: 1.09 µg/mL

## REGN10987 | Imdevimab (AB-010157) (antibody)
[1]
  Pseudovirus Neturalization: 0.001 µg/mL
[2]
  Pseudovirus Neturalization: 0.001 µg/mL
[4]
  Pseudovirus Neturalization: 0.001 µg/mL

Reference: patent US20240327505A1
